{"source": "IntAct's records for PubMed 19412162", "target": "fbx31_human FBXO31 (UniProt Q5XUX0)", "sequence (Q5XUX0 whole entry)": "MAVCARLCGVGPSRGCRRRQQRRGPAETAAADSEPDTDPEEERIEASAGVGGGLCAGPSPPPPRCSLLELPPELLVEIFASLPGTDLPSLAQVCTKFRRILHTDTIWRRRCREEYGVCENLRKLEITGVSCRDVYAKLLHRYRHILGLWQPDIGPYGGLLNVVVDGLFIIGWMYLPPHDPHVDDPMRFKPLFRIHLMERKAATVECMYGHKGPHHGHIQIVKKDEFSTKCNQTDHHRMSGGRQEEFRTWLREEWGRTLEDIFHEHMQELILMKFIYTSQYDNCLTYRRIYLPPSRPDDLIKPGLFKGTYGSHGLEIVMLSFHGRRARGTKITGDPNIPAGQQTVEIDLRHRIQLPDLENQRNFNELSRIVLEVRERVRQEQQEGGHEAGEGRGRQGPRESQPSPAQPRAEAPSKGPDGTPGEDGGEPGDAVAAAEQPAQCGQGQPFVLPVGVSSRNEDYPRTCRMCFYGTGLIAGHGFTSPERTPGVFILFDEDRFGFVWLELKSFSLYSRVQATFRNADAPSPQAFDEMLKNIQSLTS"}
{"substance": "Serine-protein kinase ATM (Homo sapiens), Q13315 D2870A;N2875K", "values": [{"measurement": "effect of a mutation on the interaction", "result": "disrupting interaction"}]}
